The domain aggregation screens of Martell et al. (2025)

Assay: soluble fraction after stress (log2 fold change); higher = more stays soluble; pooled small domains, quantitative proteomics
Settings: stress: pH 4
How it was run: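 Pooled custom libraries of small protein domains were stressed at pH 4 and then measured by high-throughput quantitative proteomics. The fold change in the amount of each domain that stays soluble after the acid stress serves as a measure of aggregation propensity. Fold changes are given on a log2 scale, and higher values mean more of the domain stayed soluble.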
With “HMEQISVPIFTNDELVTFARSYSGELGYKIDDMAVLALYNRISNIQRLDQATTLTEVKDIVDEAVAKSE” the “soluble fraction (log2)” value was -0.63.
With “HMSGAERAAALLVALGPEVASEIMKFLDDESIQKLASEIAKIEVLSPQEKEDLIGQFLLELKKT” the “soluble fraction (log2)” value was -0.982.
With “HMDSDRAARLSSLTPQQFRVLRMVSEGQLNKQIAYQLNISEATVKSHVSAILQKLGVNSRTQAVILATRLD” the “soluble fraction (log2)” value was 0.147.
With “HMSTPERQEVLDILKRQGEMTPLQIAGQISRTSKSVSNILSKLKREGFVANGAKYGSWVSTES” the “soluble fraction (log2)” value was 0.0778.
With “HMTNLTPKQQQIYQFIRASTQANGYPPTLREIGQQVGVRSPSTVKYHLDNLRTLGLLHWDGGKTRSITLP” the “soluble fraction (log2)” value was 0.0274.
With “HMGDKRPIAVGDYVKLEGQDTPGQVLSISGKNATVGFGMLKTTVKLDRLRHTMAKPQTGASAGVR” the “soluble fraction (log2)” value was ≥ 0.43.
For “HMSTVTGLINYLSSGLIKGVGEATARKLVDHFGLDVLDIIQFNPQRLLEVDGIGEARAEMIASSFSEQK”, the “soluble fraction (log2)” value was -1.48.
For “HMSVTPLLDATEKDKTKYRDLWLVAVVKNGVNYARKYKFGYVYAWLYRHDRDWLLQVNNQHKIPNIT”, the “soluble fraction (log2)” value was -0.107.
In the case of “HMSGTYIATVEAGSLDIYKSMTSNETIGKASRGDVFQILEDMGSGYARVSYNDVEGYMSIKTGDASIEEL”, the “soluble fraction (log2)” value is reported as -1.83.
With “HMILALAISSEEDDARIYATYADRLREAYPASARVFEGMVDEEHEHRRRLIDLFQRRFGDTIPLVRREHV” the “soluble fraction (log2)” value was -0.836.
In the case of “HMESYTGLAVTEDDDGWSNVRSGNSTSYSILFKIYAGEKFNILSNDGKWSYIDFNGRKGYIHNSIIRKY”, the “soluble fraction (log2)” value is reported as 0.31.
With “HMEAKKVIAVHIIGEINKPGIVELEEGARVIDAIKKAGGTTEKADLAQINLAYILKDGQKIYIPNTEDN” the “soluble fraction (log2)” value was -0.334.
In the case of “HMGAEWTEMRVWTSTSGSKVTAEASSLTNGQVTLETKSGKRITLSIRKLVEADQKFLEAHFSK”, the “soluble fraction (log2)” value is reported as 0.101.
With “HMASEKSEQLYQQMKLDIAGMPPDTRLPSIRALMRSYSVSQLLIDRTLGRLREEGALRKRFDGLYTYL” the “soluble fraction (log2)” value was -0.0945.
With “HMNNYNDSVQKIINYIADNLNENLSVRKLADKMPMSVSHFNRVFQKYTGDSPYAYVMAMRIKKAKYL” the “soluble fraction (log2)” value was -0.565.
For “HMSEATTVNYKYAVTISDLRIRKGPGTNYGSVGYTGKGVFTIVAEKGGWGKLKSGAGWISLNSKYGHKVS”, the “soluble fraction (log2)” value was -0.314.
For “HMTYLIKFDENGRRSDTYVAEEKTQEQVTELLEKGFVLITEEDYQLLVGNVDGKEYIRNADGTYSEYT”, the “soluble fraction (log2)” value was -0.894.
For “HMTKPAEVRIDELMNAAQTLFLAKGVEATTISEIIASVGVAKGTFYHYFESKQHIVEALKKRYID”, the “soluble fraction (log2)” value was -1.03.
With “HMLEIGRYNTLTVLRKVDFGYYLDGLDYGDILMPAKYAATELEAGDEVDVFIYLDSSEKLIATTETPIAQ” the “soluble fraction (log2)” value was -1.58.
For “HMLSSNEIKEIFALFDKSNRGQVATSELGTLVRALNLNPTETEITDMQSKVDPKGQGSFTLDVLEKVVQD”, the “soluble fraction (log2)” value was -0.929.
With “HMDPASYEARLSTLREQGAQQLDPVRFQYLATLAQRLPTQTPGVALILANKLRAGLSDYEQRLSEAGS” the “soluble fraction (log2)” value was -0.0623.
For “HMSNEIIFNQKSITRFLMNPENNSPMIYPLELGHEMKVIKKNNDWLNVTDEKTGLNGWVISDDFGLTKPEG”, the “soluble fraction (log2)” value was -0.133.
For “HMSNPPLPFLAKTKVSWTGEQDGDLGFLENEVVKVFHVVDELWWQGSLSRNGAEGIFPRDFVEVISAP”, the “soluble fraction (log2)” value was -1.27.
With “HMQTYTYYIAKNDISIGQKITPDMLIEKQVNLGDSKDRYLSREQLETGKYIAVRQIPAGELISSASANE” the “soluble fraction (log2)” value was 0.0749.
With “HMNIMAQDWISSPMGPISFKSNQHGLVKIGWGEVPRENTEQPNLEFTRKWLVDYFEGKASPLPYF” the “soluble fraction (log2)” value was -1.55.
For “HMREVSPEDLALMRRIDAWHLEHPFAGARLLRDLLRPEGFQAGRRHIGTLMARMGIEALYRK”, the “soluble fraction (log2)” value was -0.255.
In the case of “HMKNESLMLPRDIDYSRVHGLSNEAIQKLQDALPQSLGQASRIEGITPATLSLLLLYLKKNNKRI”, the “soluble fraction (log2)” value is reported as 0.0199.
With “HMANKQLQEKLKNYISENGSLSSAAKAIGLSPATLSTYLKDKYEGNVANVETRLTEIFETVEAANNLL” the “soluble fraction (log2)” value was -0.313.
In the case of “HMFMVAGHLSEKNGYFYAVINYNDSLGNRKTKWMSTGLTVKGNKKRAEAILAEKRRTFQPDEPV”, the “soluble fraction (log2)” value is reported as 0.129.
With “HMIIIMKMGADESQVQETIKRIKDLGFNTHLSKGENRTIIGVIGDVSSIDESDVERLRATPYIAEVVRVS” the “soluble fraction (log2)” value was 0.417.
With “HMVMLIVMNHTASQADIDKVIEVVSGMGFTAAPIPGGERTAIGVLGNKGYVDDSTIRDLPGVQQAIHVSKP” the “soluble fraction (log2)” value was -0.301.
For “HMAISQYGSQSDEVTKIQTRLKAWGYFDGPVTAYYGSQTTEAVKKFQQKHGLSATGVADAKTLELIGLP”, the “soluble fraction (log2)” value was 0.056.
In the case of “HMGTGADQVSWKTGDKVTHKKWGEGTVVKVSGSGNDKELDIAFPQQGVKRLLASFAPIKKVT”, the “soluble fraction (log2)” value is reported as -0.0102.
With “HMAAVSSHAVKQRIRSLIQAEDPASPLSDEALRLALSALGVEVSRRAVAKYRTSMDIPASSQRKK” the “soluble fraction (log2)” value was 0.238.
In the case of “HMSINQIADKGYITRLIDNNANIKDVLYYDASSRILAIEDPKYMFYLKNTDWNQFAKEMGFKLE”, the “soluble fraction (log2)” value is reported as -0.556.
For “HMDYYNILGVNKAATAQDIKRAYRKLAKEHHPDHGGDATRLQQVNEAYDTLKDPQRREQYDS”, the “soluble fraction (log2)” value was 0.0634.
In the case of “HMGSAKAQLYDLMNAHQVTRNQIQDIVAEKGYFPAGTPIENYPDDFVKGVLVGAWDQVHKAILDKEI”, the “soluble fraction (log2)” value is reported as -0.437.
For “HMRTAKEVFYKELKGYMQNGDELSVKKIYSLFPEINPKTVSWRLHELVQHGKIHRTGHGYYALTQ”, the “soluble fraction (log2)” value was 0.0797.
